Ends that are not written are not given here.
What was measured:
[1] = target: T1, PTD10 (Hs-PDGF-B_136-145), synthetic peptide IEIVRKKPIFC (human); assay: dot blot, anti-6His Ab-HRP detection
T1 peptide: IEIVRKKPIFC

[2] = target: T2, PTD8 (Ec-AP_159-168), synthetic peptide LVAHVTSRKC (Escherichia coli); assay: dot blot, anti-6His Ab-HRP detection
T2 construct: also called control peptide (unrelated) in the Cas9 blots
T2 peptide: LVAHVTSRKC

[3] = target: T2, PTD8 (Ec-AP_159-168), synthetic peptide …; assay: dot blot, peptide spotted on NC membrane, anti-6His Ab-HRP detection
[4] = target: T3, Cas9 protein without any tag (no tag), recombinant Streptococcus pyogenes Cas9 (Streptococcus pyogenes, UniProt Q99ZW2 1-1368); assay: dot blot (non-denatured) and western blot (denatured), anti-6His Ab-HRP detection
T3 construct: also called Cas9 (no tag); tagless Cas9

[5] = target: T2, PTD8 (Ec-AP_159-168), synthetic peptide …; assay: dot blot, AP fusion as 1st Ab, NBT/BCIP
[6] = target: T4, purified horseradish peroxidase (HRP) protein (horseradish, UniProt P00433 31-338); assay: dot blot, HRP captured by V5C2-L-HRPC2 bound to immobilized PTD19, chromogenic substrate
T4 sequence (looked up): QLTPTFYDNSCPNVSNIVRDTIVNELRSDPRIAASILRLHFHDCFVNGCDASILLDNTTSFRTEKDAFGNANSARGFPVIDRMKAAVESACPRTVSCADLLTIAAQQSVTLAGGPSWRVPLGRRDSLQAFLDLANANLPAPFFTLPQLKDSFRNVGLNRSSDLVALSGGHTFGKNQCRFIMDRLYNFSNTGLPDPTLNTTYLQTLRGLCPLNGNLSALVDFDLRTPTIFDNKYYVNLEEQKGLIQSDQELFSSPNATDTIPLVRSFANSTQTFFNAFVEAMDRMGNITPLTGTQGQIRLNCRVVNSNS

T3 sequence (Q99ZW2 whole entry): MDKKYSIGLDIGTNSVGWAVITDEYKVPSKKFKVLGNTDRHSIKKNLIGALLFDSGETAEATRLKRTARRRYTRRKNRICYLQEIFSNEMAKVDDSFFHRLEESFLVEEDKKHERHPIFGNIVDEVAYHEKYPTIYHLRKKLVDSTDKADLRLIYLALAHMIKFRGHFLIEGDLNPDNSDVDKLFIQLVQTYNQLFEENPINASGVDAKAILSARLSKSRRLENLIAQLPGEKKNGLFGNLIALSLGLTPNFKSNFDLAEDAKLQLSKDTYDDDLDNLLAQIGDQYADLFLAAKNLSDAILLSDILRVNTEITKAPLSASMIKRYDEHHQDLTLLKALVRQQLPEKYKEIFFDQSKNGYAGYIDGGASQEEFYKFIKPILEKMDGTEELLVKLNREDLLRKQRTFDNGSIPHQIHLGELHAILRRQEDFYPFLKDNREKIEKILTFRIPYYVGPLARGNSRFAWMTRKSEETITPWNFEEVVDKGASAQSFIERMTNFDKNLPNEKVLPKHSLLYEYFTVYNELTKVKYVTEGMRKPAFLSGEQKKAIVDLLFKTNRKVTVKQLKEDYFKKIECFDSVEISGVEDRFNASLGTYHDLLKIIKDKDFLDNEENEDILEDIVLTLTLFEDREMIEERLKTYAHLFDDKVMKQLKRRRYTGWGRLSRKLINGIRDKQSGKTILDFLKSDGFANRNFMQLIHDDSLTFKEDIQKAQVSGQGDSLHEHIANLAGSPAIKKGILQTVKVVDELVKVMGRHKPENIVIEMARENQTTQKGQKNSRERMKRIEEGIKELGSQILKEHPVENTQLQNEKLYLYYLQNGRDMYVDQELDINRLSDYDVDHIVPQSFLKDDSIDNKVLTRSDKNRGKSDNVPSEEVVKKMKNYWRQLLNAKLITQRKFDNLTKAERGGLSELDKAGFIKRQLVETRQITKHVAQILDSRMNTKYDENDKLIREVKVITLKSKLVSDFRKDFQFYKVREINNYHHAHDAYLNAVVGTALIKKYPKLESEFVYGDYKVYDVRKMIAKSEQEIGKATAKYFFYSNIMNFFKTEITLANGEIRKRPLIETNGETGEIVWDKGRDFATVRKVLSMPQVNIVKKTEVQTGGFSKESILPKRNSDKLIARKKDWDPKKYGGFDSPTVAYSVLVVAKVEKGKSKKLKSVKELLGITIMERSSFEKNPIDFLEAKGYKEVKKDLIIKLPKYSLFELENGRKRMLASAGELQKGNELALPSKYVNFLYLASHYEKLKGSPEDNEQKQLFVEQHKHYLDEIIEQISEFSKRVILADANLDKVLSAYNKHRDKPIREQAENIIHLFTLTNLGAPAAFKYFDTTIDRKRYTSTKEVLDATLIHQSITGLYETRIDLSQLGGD

B1: PTD20 (2GS6H), synthetic linker-His-tag oligopeptide (peptide)
peptide: GSGSHHHHHH
notes: also called linker-His-tag only; negative control
binding result [1]: no binding
binding result [2]: no binding

LLQVDVILLCYPENLEQIKIRLFGSGSHHHHHH (designed binder, also: dimer, also called sAb dimer; CCAAP sAb dimer) [PTD14 (Sp-C9_CAA813-821PAPH), synthetic His-tagged CAAP oligopeptide dimer]
binding result [3]: no binding
binding result [4]: binds

DLDYAQLRDKCYPENEDRLQSYDLDGSGSHHHHHH (designed binder, also: dimer, parallel and antiparallel, also called Anti-PDGF sAb)
binding result [1]: binds

B2: C9-813-CAA2 (dimer, parallel-linker-antiparallel), recombinant CAAP oligopeptide-AP fusion protein (designed binder, not shown: small tags and cut ends; large carriers)
chain: MHHHHHHELLLSVEVQQLCYPENLEYLFIEKL
notes: also called rAb C9-813-CAA2; dimer construct
binding result [5]: no binding

EYRLYLRALCYPENLSRAYLSYEGSGSHHHHHH (designed binder, also: dimer, parallel and antiparallel)
binding result [2]: binds

B3: V5C2-L-HRPC2, purified polypeptide with two CAAP box dimer arms designed to interact with V5 epitope and HRP (designed binder)
chain: MSRKEARELCYPENGLEALIRSGGGSGGGSGGGSYYLRKRILCYPENQVLERSNEGSGSKLLEHHHHHH
binding result [6]: binds

From patent US20210017226A1 (PEPTION, published 2021)
